Measured values: patent publication US6451571B1, “Thymidine kinase mutants” (University of Washington, priority 1994, dated 2002)
Where two headings read alike, the source gives them in different places.

Tests used:
[1] = Enzyme kinetics of purified TK, ganciclovir; type: biochemical; settings: substrate ganciclovir
Experimental: (§1) A single colony of pET23d:HSVTK, pET23d:30, pET23d:75 and pET23d:132 in BL21(DE3)tk^− cells is used to inoculate 5 ml of M9ZB medium (1% tryptone, 0.5% NaCl, 1×M9 salts, 1 mM MgSO4, 100 μM CaCl2 and 0.2% glucose) containing cabenicillin at 20 μg/ml. The culture is incubated at 37° C. overnight. The following day the 5 ml culture is used to inoculate 1L M9ZB+cabenicillin at 20 μg/ml and the culture allowed to grow at 37° C. to OD600 0.1. At that point IPTG is added to 0.4 mM and the culture incubated a further 3 hours. The cells are chilled on ice, pelleted by centrifugation and the pellets washed once in cell wash buffer (50 mM Tris, pH 7.5, 5mM EDTA, 10% sucrose) prior to freezing the pellets at −70° C. […]
(§2) A thymidylyl-sepharose column is used for a one step purification procedure (see Example 2). […] The extent of purification is monitored by Coomassie stained SDS:PAGE analysis and the concentration of purified protein determined using the BioRad Reagent (Bradford Reagent). […]
(§3) The kinetics of thymidine, ganciclovir and acyclovir phosphorylation by the wild-type, mutant 30 and 75 thymidine kinase enzymes with variant concentrations of radioactive nucleoside substrate are determined essentially as described in Example 3. Km and Vmax values are determined from double reciprocal plots and kcat values are calculated using the equation Vmax=kcat [Eo] where [Eo] is the total enzyme concentration. […]

[2] = test system: ts13 BHK tk− cells; assay: ED50 determination with GCV or ACV in transfected BHK tk− cells (Alamar Blue); type: cell-based, baby hamster; settings: pooled G418-resistant transfectants, 4 days on nucleoside analog
Experimental: Briefly, the cell transfections are performed as follows. Approximately 5×10^5 ts13 BHK tk^− cells (ATCC CRL-1632) are plated on 100 mm dishes in DMEM+10% calf serum. For each transfection 1 μg of pSV2neo and 10 μg of a pCMV construct (pCMV, pCMV:TK-wrong (HSVTK in the wrong orientation relative to the promoter), pCMV:HSVTK, pCMV:30, pCMV:75 or pCMV:132 DNA) in 0.25M CaCl2 are mixed with 0.5 ml 2×BBS (see Chen and Okayama) and preincubated at 37° C. at 2.5% CO2 […]. The CaCl2/DNA mix is added dropwise to the plates and mixed in well. After a 24 hour incubation at 37° C. in a 2.5% CO2 wet incubator, the cells are rinsed twice with Dulbecco PBS minus Ca/Mg and fed with fresh DMEM+10% calf serum. Plates are incubated at 37° C. with 6% CO2. After 72 hours post-transfection the cells are split 1:3 and plated in DMEM+10% calf serum containing G418 at 600 μg/ml.
The cells are selected on G418 (600 μg/ml) at 37° C. for 17 days. During this time the plates are pooled (for each DNA transfection) and split three times at a ratio of 1:3. Approximately 30-40 clones are selected in this manner for each transfected DNA containing a tk gene in the correct orientation. The pCMV and pCMV:TK-wrong transfections yielded between 130 and 140 clones each. […]
Determination of the fluorescence level of cells incubated in the presence of Alamar Blue directly relates to cell viability.

[3] = Enzyme kinetics of purified TK, thymidine; type: biochemical; settings: substrate thymidine
Experimental: as §1, §2, §3

[4] = test system: BHK tk− cells; assay: Sensitivity of guanylate kinase transfectant pools to ACV in TK expressing clones; type: cell-based, baby hamster; settings: three days with ACV
Experimental: pREP8-7, pREP8-7:hgmk and pREP8-7:mgmk are used to transfect BHK tk, TK-transfected clone C3 and 75-transfected clone D4. Histidinol is used to select pools of stable transfectants and to isolate individual clones.
As in Example 8, pools of transfectants are placed in 96 well microtiter dishes at 1000 cells/well. Eight replicates are incubated for three days in the presence of various GCV or ACV concentrations.

Molecule: WT: wild-type HSV-1 thymidine kinase with McKnight sequence (pT7:HSVTKII and derived vectors)
- Km [1]: 47.6 µM
- kcat ([1]; per active site): .050 s⁻¹
- EC50 ([2]; read-out: ED50 ACV): 25 µM
- EC50 ([2]; read-out: ED50 GCV): 20 µM
- Km [3]: 0.38 µM
- kcat ([3]; per active site): .230 s⁻¹

B1: Guanylate kinase: human or murine guanylate kinase expressed from pREP8-7 in wild-type TK clone C3 cells (protein, UniProt Q16774 2-197, looked up)
Guanylate kinase: SGPRPVVLSGPSGAGKSTLLKRLLQEHSGIFGFSVSHTTRNPRPGEENGKDYYFVTREVMQRDIAAGDFIEHAEFSGNLYGTSKVAVQAVQAMNRICVLDVDLQGVRNIKATDLRPIYISVQPPSLHVLEQRLRQRNTETEESLVKRLAAAQADMESSKEPGLFDVVIINDSLDQAYAELKEALSEEIKKAQRTGA
- increased sensitivity to ACV relative to TK expression alone [4]: approximately 2 fold
